Experimental data: US20210070868A1 (published 2021)

Target: Hepatocyte Growth Factor (HGF) (UniProt P14210 32-728)
Test: ELISA

Sequence of Hepatocyte Growth Factor (HGF) (P14210 32-728): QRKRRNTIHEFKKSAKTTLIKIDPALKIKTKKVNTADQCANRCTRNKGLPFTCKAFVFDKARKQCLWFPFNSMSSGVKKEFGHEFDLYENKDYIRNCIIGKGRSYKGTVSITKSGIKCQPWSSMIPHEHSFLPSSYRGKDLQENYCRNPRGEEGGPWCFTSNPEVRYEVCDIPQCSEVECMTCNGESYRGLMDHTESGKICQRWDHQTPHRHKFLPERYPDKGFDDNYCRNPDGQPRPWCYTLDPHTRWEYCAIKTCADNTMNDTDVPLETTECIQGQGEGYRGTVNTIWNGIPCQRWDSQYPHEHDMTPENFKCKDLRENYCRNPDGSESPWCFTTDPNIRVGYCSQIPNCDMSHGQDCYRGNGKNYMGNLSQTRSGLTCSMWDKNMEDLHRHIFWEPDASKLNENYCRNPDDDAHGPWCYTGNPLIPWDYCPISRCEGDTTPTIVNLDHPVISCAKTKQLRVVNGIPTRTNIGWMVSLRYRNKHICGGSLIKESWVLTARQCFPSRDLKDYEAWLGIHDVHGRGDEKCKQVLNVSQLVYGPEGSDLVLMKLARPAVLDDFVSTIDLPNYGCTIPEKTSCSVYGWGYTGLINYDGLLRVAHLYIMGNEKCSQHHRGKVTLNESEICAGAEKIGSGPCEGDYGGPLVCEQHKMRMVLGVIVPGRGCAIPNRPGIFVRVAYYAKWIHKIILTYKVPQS

Kd: 0.251 nM
B1: decoyMET^K842E (receptor)
chain: ECKEALAKSEMNVNMKYQLPNFTAETPIQNVILHEHHIFLGATNYIYVLNEEDLQKVAEYKTGPVLEHPDCFPCQDCSSKANLSGGVWKDNINMALVVDTYYDDQLISCGSVNRGTCQRHVFPHNHTADIQSEVHCIFSPQIEEPSQCPDCVVSALGAKVLSSVKDRFINFFVGNTINSSYFPDHPLHSISVRRLKETKDGFMFLTDQSYIDVLPEFRDSYPIKYVHAFESNNFIYFLTVQRETLDAQTFHTRIIRFCSINSGLHSYMEMPLECILTEKRKKRSTKKEVFNILQAAYVSKPGAQLARQIGASLNDDILFGVFAQSKPDSAEPMDRSAMCAFPIKYVNDFFNKIVNKNNVRCLQHFYGPNHEHCFNRTLLRNSSGCEARRDEYRTEFTTALQRVDLFMGQFSEVLLTSISTFIKGDLTIANLGTSEGRFMQVVVSRSGPSTPHVNFLLDSHPVSPEVIVEHTLNQNGYTLVITGKKITKIPLNGLGCRHFQSCSQCLSAPPFVQCGWCHDKCVRSEECLSGTWTQQICLPAIYKVFPNSAPLEGGTRLTICGWDFGFRRNNKFDLKKTRVLLGNESCTLTLSESTMNTLKCTVGPAMNKHFNMSIIISNGHGTTQYSTFSYVDPVITSISPKYGPMAGGTLLTLTGNYLNSGNSRHISIGGKTCTLKSVSNSILECYTPAQTISTEFAVKLKIDLANRETSIFSYREDPIVYEIHPTKSFISGGSTITGVGKNLNSVSVPRMVINVHEAGRNFTVACQHRSNSEIICCTTPSLQQLNLQLPLKTKAFFMLDGILSKYFDLIYVHNPVFEPFEKPVMISMGNENVLEIKGNDIDPEAVKGEVLKVGNKSCENIHLHSEAVLCTVPNDLLKLNSELNIEWKQAISSTVLGKVIVQPDQNFTASGAAWSHPQFEKGAAWSHPQFEKGAAWSHPQFEKGAAHHHHHH
